± gives the uncertainty stated by the source.
B1: Membrane-associated guanylate kinase, WW and PDZ domain-containing protein 2, residues 296 to 340; numbered along this chain, Q86UL8 (parent)
chain: EDNEEPDPLPDNWEMAYTEKGEVYFIDHNTKTTSWLDPRLAKKAK

Variants of: B1
Assay: abundance fitness (aPCA) (normalised: wild type 0, dead -1); higher = more abundant; growth selection in yeast, the domain comes from the species named
Settings: Homo sapiens

| Variant | abundance fitness |
| --- | --- |
| T33S | -0.236 ± 0.045 |
| T33L | -0.635 ± 0.075 |
| T33D | -0.848 ± 0.067 |
| T33P | -0.841 ± 0.074 |
| T33E | -0.655 ± 0.06 |
| T33Q | -0.637 ± 0.068 |
| T33I | -0.507 ± 0.11 |
| T33M | -0.488 ± 0.08 |
| T33V | -0.272 ± 0.046 |
| T33N | -0.341 ± 0.077 |
| T33C | 0.021 ± 0.063 |
| T33W | -0.763 ± 0.056 |
| T33K | -0.492 ± 0.047 |
| T33G | -0.776 ± 0.043 |
| T33A | -0.438 ± 0.048 |
| K31T | -0.355 ± 0.071 |
| K31C | -0.024 ± 0.055 |
| K31V | -0.473 ± 0.048 |
| K31S | -0.114 ± 0.054 |
| K31R | 0.005 ± 0.039 |
| K31D | -0.38 ± 0.091 |
| K31I | -0.498 ± 0.079 |
| K31L | -0.155 ± 0.048 |
| K31G | -0.074 ± 0.038 |

| Variant | abundance fitness |
| --- | --- |
| K31E | -0.08 ± 0.043 |
| K31Q | 0.013 ± 0.056 |
| K31W | -0.2 ± 0.058 |
| K31P | -0.675 ± 0.076 |
| K31M | -0.008 ± 0.058 |
| K31H | 0.103 ± 0.11 |
| K31Y | -0.235 ± 0.11 |
| P38V | -0.979 ± 0.26 |
| H28W | -0.334 ± 0.044 |
| H28F | -0.267 ± 0.18 |
| H28K | -0.269 ± 0.1 |
| H28Y | -0.525 ± 0.079 |
| H28Q | -0.267 ± 0.06 |
| H28A | -0.417 ± 0.045 |
| H28R | -0.243 ± 0.045 |
| H28V | -0.407 ± 0.063 |
| H28P | -0.652 ± 0.065 |
| H28E | -0.642 ± 0.088 |
| H28G | -0.431 ± 0.044 |
| I26L | -0.089 ± 0.068 |
| I26A | -0.521 ± 0.073 |
| I26R | -0.379 ± 0.056 |
| I26M | 0.023 ± 0.16 |
| I26T | -0.733 ± 0.35 |

| Variant | abundance fitness |
| --- | --- |
| I26H | -0.618 ± 0.077 |
| I26D | -1.15 ± 0.16 |
| I26S | -0.677 ± 0.084 |
| I26E | -0.585 ± 0.077 |
| I26Q | -0.259 ± 0.11 |
| I26V | 0.01 ± 0.069 |
| I26F | -0.549 ± 0.17 |
| I26C | -0.258 ± 0.093 |
| I26W | -0.691 ± 0.1 |
| W35F | -0.083 ± 0.1 |
| W35K | -0.494 ± 0.078 |
| W35P | -0.668 ± 0.089 |
| W35D | -0.547 ± 0.1 |
| W35G | -0.523 ± 0.039 |
| W35S | -0.436 ± 0.054 |
| W35C | -0.527 ± 0.072 |
| W35Y | -0.036 ± 0.068 |
| W35A | -0.489 ± 0.042 |
| W35M | -0.247 ± 0.054 |
| W35Q | -0.365 ± 0.065 |
| W35V | -0.473 ± 0.063 |
| W35T | -0.451 ± 0.089 |
| W35I | -0.492 ± 0.055 |
| W35R | -0.362 ± 0.043 |

| Variant | abundance fitness |
| --- | --- |
| F25W | -0.103 ± 0.09 |
| T32Q | -0.199 ± 0.067 |
| T32V | -0.111 ± 0.045 |
| T32S | -0.08 ± 0.064 |
| T32R | -0.269 ± 0.05 |
| T32K | -0.303 ± 0.12 |
| T32C | 0.007 ± 0.11 |
| T32F | -0.843 ± 0.37 |
| T32N | -0.353 ± 0.088 |
| T32M | -0.071 ± 0.069 |
| T32H | -0.434 ± 0.063 |
| T32W | -0.325 ± 0.073 |
| D27L | -1.3 ± 0.091 |
| D27M | -1.03 ± 0.091 |
| D27Y | -0.217 ± 0.38 |
| D27C | -0.544 ± 0.13 |
| D27I | -1.58 ± 0.32 |
| D27N | -0.151 ± 0.082 |
| D27A | -0.786 ± 0.12 |
| D27E | -0.487 ± 0.072 |
| D27R | -0.667 ± 0.1 |
| D27G | -0.937 ± 0.074 |
| D27V | -1.39 ± 0.1 |
| D27P | -1.09 ± 0.22 |

| Variant | abundance fitness |
| --- | --- |
| D37V | -0.595 ± 0.048 |
| D37F | -0.846 ± 0.14 |
| D37K | -0.246 ± 0.065 |
| D37A | -0.431 ± 0.042 |
| D37Y | -0.697 ± 0.13 |
| D37L | -0.699 ± 0.042 |
| D37R | -0.152 ± 0.039 |
| D37W | -0.671 ± 0.045 |
| D37H | -0.623 ± 0.2 |
| D37G | -0.51 ± 0.047 |
| D37T | -0.675 ± 0.055 |
| D37M | -0.533 ± 0.071 |
| D37P | -0.456 ± 0.064 |
| D37S | -0.456 ± 0.041 |
| D37E | -0.569 ± 0.073 |
| D37N | -0.184 ± 0.4 |
| D37Q | -0.607 ± 0.087 |
| D37I | -0.832 ± 0.075 |
| L36D | -0.227 ± 0.12 |
| L36N | -0.186 ± 0.09 |
| L36T | -0.127 ± 0.061 |
| L36F | -0.184 ± 0.11 |
| L36G | -0.198 ± 0.057 |
| L36P | -0.776 ± 0.099 |

| Variant | abundance fitness |
| --- | --- |
| L36A | -0.117 ± 0.067 |
| L36E | -0.111 ± 0.079 |
| L36I | 0.086 ± 0.14 |
| L36C | 0.153 ± 0.12 |
| L36H | -0.298 ± 0.17 |
| L36S | -0.125 ± 0.045 |
| L36R | -0.051 ± 0.044 |
| L36K | -0.012 ± 0.054 |
| L36W | -0.078 ± 0.087 |
| L36V | 0.025 ± 0.042 |
| L36M | -0.053 ± 0.078 |
| R39A | -0.514 ± 0.049 |
| R39C | -0.478 ± 0.08 |
| N29R | -0.082 ± 0.05 |
| N29A | 0.022 ± 0.069 |
| N29E | -0.081 ± 0.091 |
| N29V | -0.051 ± 0.069 |
| N29S | -0.011 ± 0.06 |
| N29G | -0.019 ± 0.049 |
| N29T | -0.02 ± 0.058 |
| N29L | -0.059 ± 0.05 |
| N29Y | -0.122 ± 0.13 |
| N29P | -0.673 ± 0.079 |
| N29W | -0.151 ± 0.056 |

| Variant | abundance fitness |
| --- | --- |
| N29Q | -0.13 ± 0.12 |
| N29D | -0.109 ± 0.089 |
| S34V | -0.758 ± 0.12 |
| S34G | -0.463 ± 0.076 |
| S34R | -0.629 ± 0.073 |
| S34E | -0.826 ± 0.12 |
| S34C | -0.181 ± 0.1 |
| S34A | -0.43 ± 0.064 |
| S34W | -0.784 ± 0.26 |
| S34L | -1.14 ± 0.15 |
| T30A | -0.107 ± 0.042 |
| T30D | -0.324 ± 0.088 |
| T30P | -1.17 ± 0.076 |
| T30S | 0.122 ± 0.075 |
| T30V | -0.386 ± 0.049 |
| T30F | -0.575 ± 0.13 |
| T30G | -0.256 ± 0.037 |
| T30C | -0.185 ± 0.061 |
| T30E | -0.156 ± 0.067 |
| T30R | -0.183 ± 0.038 |
| T30L | -0.221 ± 0.058 |
| T30M | -0.388 ± 0.34 |
| T30Q | -0.155 ± 0.079 |
